In patent publication US11827701B2, “IL-6 binding molecules” (argenx BV, priority 2012, dated 2023):
Residue numbers refer to the chain shown, from its start. Each block holds one molecule with its values, some of them ahead of it.

Key:
Type in all cases: binding
cynomolgus monkey IL-6 = molecular target: T1, cynomolgus monkey IL-6 (Macaca fascicularis, UniProt P79341); test: Surface plasmon resonance (Biacore), cynomolgus monkey IL-6; settings: for KA / ka / kd: cy/cyno, periplasmic fractions; for Koff HIS-cyIL-6: purified chain-shuffled Fabs
T1 construct: His
Protocol: (§1) VL chain shuffling was used to improve the affinity of the Fabs 17F10, 18C7, 18C9, 18C11, 20A4, 29B11, 16D2 and 28A6. In this method, the heavy chain of these clones (as a VHCH1 fragment) was reintroduced into the primary phagemid-light chain library (see Example 1). Affinity selections were performed to select for chain shuffled Fabs with an improved affinity for IL-6. The binding kinetics of chain shuffled Fabs were evaluated by surface plasmon resonance (Biacore) using both bacterially and eukaryotically produced human IL-6, and cynomolgus monkey IL-6 (Tables 5-7). The VH and VL amino acid sequences of exemplary IL-6-specific Fabs selected by the VL chain shuffling method are set forth in Table 14 below.

[1] = molecular target: T2, eukaryotically produced human IL-6 (Homo sapiens, UniProt P05231); test: Surface plasmon resonance (Biacore), eukaryotically produced human IL-6 coated on CM5 chip; settings: for Koff eukIL-6: purified chain-shuffled Fabs
T2 construct: purchased Humanzyme HZ-1044; host or cells: Human Embryonic kidney cells
Protocol: (§2) The binding kinetics of IL-6-specific Fabs that were able to cross-compete with the B-E8 antibody was assessed using surface plasmon resonance (Biacore). Specifically, biotinylated (prokaryotic) IL-6 was captured on a streptavidin biacore sensor chip (CM5-SA) and different concentrations of purified Fabs were injected during 3 minutes following by a 5 minute wash with buffer. From the washing phase the off-rate (kd) was determined, while from the injection phase the on-rate (ka) was calculated using the concentration and off-rate as parameters. […] The binding kinetics of antagonistic purified Fabs (Table 3) and periplasmic fractions of Fab-expressing bacteria (Table 4) were also evaluated by surface plasmon resonance (Biacore) using both bacterially and eukaryotically produced human IL-6 directly coated on a CM5 chip. The Fabs tested had off-rates between 6×10^−4 and 2×10^−5 s^−1.
as §1
(§3) VH chain shuffling was also used to improve the affinity of the Fab 24D10. In this method, the light chain of 24D10 was reintroduced into the primary phagemid-heavy chain library (see Example 1) and selected using an off-rate assay. In this type of selection, the phage were allowed to bind to antigen on a substrate for 1.5 to 2 hours. At round 2, after 15 washes with PBS-Tween, an additional wash was performed with the presence of excess soluble IL-6. […] This procedure avoids re-binding of such phage to the coated target. […] The binding kinetics of chain shuffled Fabs and the benchmark antibodies, BE8 and GL18, were evaluated by surface plasmon resonance (Biacore) using both bacterially and eukaryotically produced human IL-6 (Tables 8 and 9). The VH and VL amino acid sequences of exemplary IL-6-specific Fabs selected by the VH chain shuffling method are set forth in Table 14 below. […]

[2] = molecular target: T3, bacterially produced human IL-6 (Homo sapiens, UniProt P05231); test: Surface plasmon resonance (Biacore), bacterially produced human IL-6 coated on CM5 chip
T3 construct: His
Protocol: as §2, §1, §3

[3] = molecular target: biotinylated (prokaryotic) IL-6 (Homo sapiens, UniProt P05231); test: Surface plasmon resonance (Biacore), biotinylated IL-6 captured on streptavidin sensor chip; settings: purified Fab
Protocol: as §2

[4] = euk, periplasmic fractions, 29B11 chain shuffled
[5] = bact, periplasmic fractions, 29B11 chain shuffled
[6] = Euk IL-6, purified 24D10 chain-shuffled Fabs
[7] = Bact, purified 24D10 chain-shuffled Fabs
[8] = euk, periplasmic fractions, 28A6 chain-shuffled
[9] = bact, periplasmic fractions, 28A6 chain-shuffled

T3 sequence (P05231 30-212): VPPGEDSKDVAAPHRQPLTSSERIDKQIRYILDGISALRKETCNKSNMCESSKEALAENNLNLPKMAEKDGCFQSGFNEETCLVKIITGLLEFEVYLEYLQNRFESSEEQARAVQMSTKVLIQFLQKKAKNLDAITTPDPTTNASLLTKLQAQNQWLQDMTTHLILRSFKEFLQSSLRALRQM
T2 sequence (P05231 30-212): as above
Sequence of biotinylated (prokaryotic) IL-6 (P05231 30-212): as above
T1 sequence (P79341 28-212): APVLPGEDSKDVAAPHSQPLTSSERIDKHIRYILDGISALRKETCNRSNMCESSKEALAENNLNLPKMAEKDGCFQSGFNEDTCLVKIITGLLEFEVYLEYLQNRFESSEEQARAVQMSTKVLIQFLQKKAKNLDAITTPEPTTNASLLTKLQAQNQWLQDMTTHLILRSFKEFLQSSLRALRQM

B2: 47C2 (R4): 29B11 chain shuffled Fab, periplasmic fraction (antibody, listed as Lama glama, V domains shown)
VH: EVQLVESGGGLVQPGGSLRLSCAASGFTFSSYAMSWVRQAPGKGLEWVSRISSGGISTYYADSVKGRFTISRDNAKNTLYLQMNSLKPEDTAVYYCVRYAWGVQWAFDFWGQGTQVTVSS
VL: ALSYDLTQPPSVSGSPGKTVTISCAGTSSDVGYGNYVSWYQQLPGMAPKILIYDVNKRASGIADRFSGSKSGNTASLTISGLQSEDEADYYCASYRRGETIVFGGGTHLTVLG
- KA (cynomolgus monkey IL-6; 29B11 chain shuffled): 6.48e+08 M⁻¹
- ka (cynomolgus monkey IL-6; 29B11 chain shuffled): 851000 M⁻¹ s⁻¹
- kd (cynomolgus monkey IL-6; 29B11 chain shuffled): 0.00131 s⁻¹
- KA [1, 4]: 3.54e+09 M⁻¹
- ka [1, 4]: 849000 M⁻¹ s⁻¹
- kd [1, 4]: 0.00024 s⁻¹
- KA [2, 5]: 3.56e+09 M⁻¹
- ka [2, 5]: 1.12e+06 M⁻¹ s⁻¹
- kd [2, 5]: 0.000315 s⁻¹

B3: 48C10: 29B11 chain shuffled Fab, periplasmic fraction (antibody, listed as Lama glama, V domains shown)
VH: B2 VH
VL: AQSVLTQPPSVSGSPGQTVTISCAGTSEDVGYGNYVSWYQQLPGMAPKLLIYDVNKRASGIADRFSGSKSGNTASLTISGLQSEDEADYYCASYRRTIDNIFGGGTHLTVLG
- KA (cynomolgus monkey IL-6; 29B11 chain shuffled): 4.1e+08 M⁻¹
- ka (cynomolgus monkey IL-6; 29B11 chain shuffled): 180000 M⁻¹ s⁻¹
- kd (cynomolgus monkey IL-6; 29B11 chain shuffled): 0.00044 s⁻¹
- KA [2, 5]: 1.43e+09 M⁻¹
- ka [2, 5]: 262000 M⁻¹ s⁻¹
- kd [2, 5]: 0.000184 s⁻¹

B5: 41B5: light chain shuffled Fab of parental 17F10 (antibody, V domains shown)
VH: EVQLQESGPGLVKPSQTLSLTCTVSGGSIATSYYAWSWIRQPPGKGLEWMGVIDYDGDTYYKPSLKSRTSISRDTSKNQFSLQLSSVTPEDTAVYYCARAGLGDSYYLGTYYAMDYWGKGTLVTVSS
VL: QSALTQPPSMSGTLGKTLTISCNGTSSDIGSGDYVSWYQQLPGTTPKLLIEGVTTRASGIPDRFSASKSDNTASLTISGLQSEDEATYYCASYRETNNVVFGGGTHLTVLS
- Koff HIS-cyIL-6 (cynomolgus monkey IL-6): 0.00017 s⁻¹
- Koff eukIL-6 [1]: 0.0002 s⁻¹

B6: 17F10: antagonistic IL-6-specific Fab clone from immunized llama (antibody, listed as Lama glama, V domains shown)
VH: B5 VH
VL: QAGLTQPPSVSGSPGKTVTISCAGTTSDVGTGNFVSWYQQLPGMAPKLLIYDVNKRASGIADRFSGSKSGNTASLTISGLQSEDEADYYCASYRSLNNVVFGGGTHLTVLG
- Koff HIS-cyIL-6 (cynomolgus monkey IL-6): 0.00078 s⁻¹
- Koff eukIL-6 [1]: 0.00077 s⁻¹
- Koff HIS-huIL-6 ([2]; purified chain-shuffled Fabs): 0.00088 s⁻¹

B7: 24D10: antagonistic IL-6-specific Fab clone, parental of 61H7 (antibody, listed as Lama glama, V domains shown)
VH: QLQVVESGGGLVQPGGSLRLSCAASGFTFSSYAMSWVRQAPGKGPEWVSRISSGGGSTSYADSVKGRFTISRDNAKNTLYLQMNSLKPEDTAVYYCANRAGWGMGDYWGQGTQVTVSS
VL: QTVVTQEPSLSVSPGGTVTLTCGLSSGSVTASNYPGWFQQTPGQAPRALIYSTNDRHSGVPSRFSGSISGNKAALTITGAQPEDEADYYCALDIGDITEFGGGTHLTVLG
- ka [1, 6]: 250000 M⁻¹ s⁻¹
- kd [1, 6]: 0.0001 s⁻¹
- binding ([1]; periplasmic fractions ('pur' = purified Fab), IL-6 form not stated): 301
- ka [2, 7]: 210000 M⁻¹ s⁻¹
- kd [2, 7]: 0.0001 s⁻¹
- KA [3]: 3.7e+09 M⁻¹
- Rmax [3]: 40.6 RU
- ka [3]: 62700 M⁻¹ s⁻¹
- kd [3]: 1.69e-05 s⁻¹
- off-rates (range) [3]: ~10^−5 s^−1

B10: 48H1g2, R4: 28A6 chain-shuffled Fab, periplasmic fraction (antibody, V domains shown)
VH: QVQLVESGGGLVQPGGSLRLSCAASGFTFSNYYMTWVRQAPGKGLEWVSSIYSFSGDTAYADSVKGRFTISRDNAKNTLYLQMNSLKSEDTAVYYCTRNLGGVVVTTNGYDYWGQGTQVTVSS
VL: DVVMTQSPSSLPTSLGDSVTITCQASQSISDELSWYQQKPGQTPKLLIYGASKLQTGVPSRFSGSGSGTSFTLTISGLEAEDLATYYCLQGYSWPFMFGQGTKVELK
- KA (cynomolgus monkey IL-6; 28A6 chain-shuffled): 1.18e+09 M⁻¹
- ka (cynomolgus monkey IL-6; 28A6 chain-shuffled): 112000 M⁻¹ s⁻¹
- kd (cynomolgus monkey IL-6; 28A6 chain-shuffled): 9.46e-05 s⁻¹
- KA [1, 8]: 1.56e+09 M⁻¹
- ka [1, 8]: 106000 M⁻¹ s⁻¹
- kd [1, 8]: 6.8e-05 s⁻¹
- KA [2, 9]: 2.93e+09 M⁻¹
- ka [2, 9]: 206000 M⁻¹ s⁻¹
- kd [2, 9]: 7.04e-05 s⁻¹

Results, then the molecule that gave them:

- KA (cynomolgus monkey IL-6; 29B11 chain shuffled): 1.25e+09 M⁻¹
- ka (cynomolgus monkey IL-6; 29B11 chain shuffled): 475000 M⁻¹ s⁻¹
- kd (cynomolgus monkey IL-6; 29B11 chain shuffled): 0.000381 s⁻¹
- KA [1, 4]: 5.55e+09 M⁻¹
- ka [1, 4]: 440000 M⁻¹ s⁻¹
- kd [1, 4]: 7.93e-05 s⁻¹
- KA [2, 5]: 7.6e+09 M⁻¹
- ka [2, 5]: 561000 M⁻¹ s⁻¹
- kd [2, 5]: 7.38e-05 s⁻¹
B1: 55C1a: 29B11 chain shuffled Fab, periplasmic fraction (antibody, V domains shown)
VH: B2 VH
VL: ALNFMLTQPPSVSGSPGKTVTISCAGTSSDVGYGNYVSWYQQLPGTAPKLLIYNVNKRASGITDRFSGSKSGNTASLTISGLQSEDEADYYCASYRTGDNAAFGGGTKLTVLG

- KA (cynomolgus monkey IL-6; 29B11 chain shuffled): 1.39e+09 M⁻¹
- ka (cynomolgus monkey IL-6; 29B11 chain shuffled): 468000 M⁻¹ s⁻¹
- kd (cynomolgus monkey IL-6; 29B11 chain shuffled): 0.000336 s⁻¹
- KA [1, 4]: 6.34e+09 M⁻¹
- ka [1, 4]: 414000 M⁻¹ s⁻¹
- kd [1, 4]: 6.53e-05 s⁻¹
- KA [2, 5]: 7.28e+09 M⁻¹
- ka [2, 5]: 489000 M⁻¹ s⁻¹
- kd [2, 5]: 6.72e-05 s⁻¹
B4: 55E2b: 29B11 chain shuffled Fab, periplasmic fraction (antibody, V domains shown)
VH: B2 VH
VL: AQSVLTQPPSVSGSPGKTVTISCAGTSSDVGYGNYVSWYQQLPGMAPKLLIYDVNKRASGIADRFSGSKFANTASLTISGLQSEDEADYYCASYKRGDNAVFGGGTKLTVLG

- KA (cynomolgus monkey IL-6; 28A6 chain-shuffled): 1.77e+09 M⁻¹
- ka (cynomolgus monkey IL-6; 28A6 chain-shuffled): 144000 M⁻¹ s⁻¹
- kd (cynomolgus monkey IL-6; 28A6 chain-shuffled): 8.17e-05 s⁻¹
- KA [1, 8]: 1.59e+09 M⁻¹
- ka [1, 8]: 101000 M⁻¹ s⁻¹
- kd [1, 8]: 6.36e-05 s⁻¹
- KA [2, 9]: 2.78e+09 M⁻¹
- ka [2, 9]: 188000 M⁻¹ s⁻¹
- kd [2, 9]: 6.76e-05 s⁻¹
B8: 55A11d: 28A6 chain-shuffled Fab, periplasmic fraction (antibody, V domains shown)
VH: B10 VH
VL: B10 VL with V2I, V3Q, K53R, S65R

- KA (cynomolgus monkey IL-6; 28A6 chain-shuffled): 3.2e+09 M⁻¹
- ka (cynomolgus monkey IL-6; 28A6 chain-shuffled): 285000 M⁻¹ s⁻¹
- kd (cynomolgus monkey IL-6; 28A6 chain-shuffled): 8.9e-05 s⁻¹
- KA [1, 8]: 3.1e+09 M⁻¹
- ka [1, 8]: 201000 M⁻¹ s⁻¹
- kd [1, 8]: 6.47e-05 s⁻¹
- KA [2, 9]: 3.29e+09 M⁻¹
- ka [2, 9]: 228000 M⁻¹ s⁻¹
- kd [2, 9]: 6.94e-05 s⁻¹
B9: 55C11f: 28A6 chain-shuffled Fab, periplasmic fraction (antibody, V domains shown)
VH: B10 VH
VL: B10 VL with V2I, V3Q, M4L, P12S, T13A, S93R

- KA (cynomolgus monkey IL-6; 28A6 chain-shuffled): 2.1e+09 M⁻¹
- ka (cynomolgus monkey IL-6; 28A6 chain-shuffled): 145000 M⁻¹ s⁻¹
- kd (cynomolgus monkey IL-6; 28A6 chain-shuffled): 6.88e-05 s⁻¹
- KA [1, 8]: 2.62e+09 M⁻¹
- ka [1, 8]: 146000 M⁻¹ s⁻¹
- kd [1, 8]: 5.59e-05 s⁻¹
- KA [2, 9]: 3.18e+09 M⁻¹
- ka [2, 9]: 193000 M⁻¹ s⁻¹
- kd [2, 9]: 6.09e-05 s⁻¹
B11: 55E10g1: 28A6 chain-shuffled Fab, periplasmic fraction (antibody, V domains shown)
VH: B10 VH
VL: B10 VL with V2I, V3Q
